Source: the supplement of paper PMC10065799, “High-throughput profiling of sequence recognition by tyrosine kinases and SH2 domains using bacterial peptide display” (eLife, 2023)

Columns and labels:
[1] = test system: AncSZ; experiment: phosphorylation enrichment, bacterial display (enrichment ratio); higher = better substrate or ligand; peptides without Tyr show the background
[2] = target: EPHB1 (UniProt P54762); experiment: as above
[3] = target: EPHB2 (UniProt P29323); experiment: as above
[4] = target: FGFR1 (UniProt P11362); experiment: as above
Sequence of FGFR1 (P11362 whole entry, looked up): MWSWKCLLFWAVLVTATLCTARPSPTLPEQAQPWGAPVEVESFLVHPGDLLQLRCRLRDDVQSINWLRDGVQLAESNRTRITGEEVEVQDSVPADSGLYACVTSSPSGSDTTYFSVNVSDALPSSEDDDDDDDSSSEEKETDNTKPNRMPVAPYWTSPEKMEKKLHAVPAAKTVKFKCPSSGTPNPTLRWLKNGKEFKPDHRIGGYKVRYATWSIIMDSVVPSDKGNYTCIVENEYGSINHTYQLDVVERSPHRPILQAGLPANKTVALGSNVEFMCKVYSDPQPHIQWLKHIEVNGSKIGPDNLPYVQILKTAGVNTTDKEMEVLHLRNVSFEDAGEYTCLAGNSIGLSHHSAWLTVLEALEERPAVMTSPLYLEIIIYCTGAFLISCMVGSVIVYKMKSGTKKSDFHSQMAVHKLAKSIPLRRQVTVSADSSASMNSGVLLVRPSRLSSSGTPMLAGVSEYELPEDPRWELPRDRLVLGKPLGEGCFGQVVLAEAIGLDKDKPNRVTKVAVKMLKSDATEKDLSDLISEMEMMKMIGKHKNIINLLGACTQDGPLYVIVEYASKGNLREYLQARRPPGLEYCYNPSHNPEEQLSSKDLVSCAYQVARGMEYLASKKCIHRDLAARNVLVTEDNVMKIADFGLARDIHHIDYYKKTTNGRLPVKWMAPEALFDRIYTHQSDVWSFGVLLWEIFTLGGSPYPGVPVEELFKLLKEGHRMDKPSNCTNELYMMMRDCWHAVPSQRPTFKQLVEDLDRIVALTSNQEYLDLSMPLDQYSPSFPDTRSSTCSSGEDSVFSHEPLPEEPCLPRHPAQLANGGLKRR

[5] = target: FGFR3 (UniProt P22607); experiment: as above
[6] = test system: Fer (mouse); experiment: as above
[7] = target: Fes (UniProt P07332); experiment: as above
Sequence of Fes (P07332 whole entry, looked up): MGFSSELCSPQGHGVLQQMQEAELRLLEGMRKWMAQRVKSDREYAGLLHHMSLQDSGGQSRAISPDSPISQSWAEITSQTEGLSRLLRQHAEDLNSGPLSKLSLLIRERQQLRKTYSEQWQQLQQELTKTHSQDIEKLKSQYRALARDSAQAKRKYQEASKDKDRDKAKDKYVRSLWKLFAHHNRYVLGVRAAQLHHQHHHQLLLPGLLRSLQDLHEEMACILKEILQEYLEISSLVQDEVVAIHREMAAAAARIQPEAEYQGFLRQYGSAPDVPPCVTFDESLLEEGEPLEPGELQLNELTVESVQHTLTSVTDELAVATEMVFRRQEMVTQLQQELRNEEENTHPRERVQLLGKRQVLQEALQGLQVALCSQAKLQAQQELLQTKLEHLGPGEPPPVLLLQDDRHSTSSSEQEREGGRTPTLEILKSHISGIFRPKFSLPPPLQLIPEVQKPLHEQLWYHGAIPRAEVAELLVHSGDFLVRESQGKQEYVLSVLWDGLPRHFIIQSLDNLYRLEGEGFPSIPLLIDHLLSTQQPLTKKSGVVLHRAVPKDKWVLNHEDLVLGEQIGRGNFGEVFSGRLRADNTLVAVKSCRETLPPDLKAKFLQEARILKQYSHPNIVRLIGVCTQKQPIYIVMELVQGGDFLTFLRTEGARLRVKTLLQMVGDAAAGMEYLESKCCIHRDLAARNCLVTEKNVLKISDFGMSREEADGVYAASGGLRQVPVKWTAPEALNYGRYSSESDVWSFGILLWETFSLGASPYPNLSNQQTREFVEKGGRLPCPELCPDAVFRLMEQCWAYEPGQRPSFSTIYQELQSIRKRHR

[8] = target: Fyn (UniProt P06241); experiment: as above
Sequence of Fyn (P06241 whole entry, looked up): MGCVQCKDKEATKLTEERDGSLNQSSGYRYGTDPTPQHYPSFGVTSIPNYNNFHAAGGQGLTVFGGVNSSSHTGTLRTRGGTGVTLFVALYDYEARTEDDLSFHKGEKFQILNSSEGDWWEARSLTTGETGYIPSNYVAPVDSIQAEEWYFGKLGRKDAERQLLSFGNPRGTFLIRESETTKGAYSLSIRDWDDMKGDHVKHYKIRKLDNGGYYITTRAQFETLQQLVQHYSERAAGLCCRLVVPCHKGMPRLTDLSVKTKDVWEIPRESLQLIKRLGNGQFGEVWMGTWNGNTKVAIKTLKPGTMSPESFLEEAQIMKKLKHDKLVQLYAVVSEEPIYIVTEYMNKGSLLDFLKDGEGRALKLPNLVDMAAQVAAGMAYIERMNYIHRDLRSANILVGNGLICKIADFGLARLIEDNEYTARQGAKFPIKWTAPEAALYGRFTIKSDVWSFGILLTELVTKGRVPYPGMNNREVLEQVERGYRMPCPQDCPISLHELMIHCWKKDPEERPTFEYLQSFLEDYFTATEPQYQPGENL

[9] = target: Hck (UniProt P08631); experiment: as above
Sequence of Hck (P08631 whole entry, looked up): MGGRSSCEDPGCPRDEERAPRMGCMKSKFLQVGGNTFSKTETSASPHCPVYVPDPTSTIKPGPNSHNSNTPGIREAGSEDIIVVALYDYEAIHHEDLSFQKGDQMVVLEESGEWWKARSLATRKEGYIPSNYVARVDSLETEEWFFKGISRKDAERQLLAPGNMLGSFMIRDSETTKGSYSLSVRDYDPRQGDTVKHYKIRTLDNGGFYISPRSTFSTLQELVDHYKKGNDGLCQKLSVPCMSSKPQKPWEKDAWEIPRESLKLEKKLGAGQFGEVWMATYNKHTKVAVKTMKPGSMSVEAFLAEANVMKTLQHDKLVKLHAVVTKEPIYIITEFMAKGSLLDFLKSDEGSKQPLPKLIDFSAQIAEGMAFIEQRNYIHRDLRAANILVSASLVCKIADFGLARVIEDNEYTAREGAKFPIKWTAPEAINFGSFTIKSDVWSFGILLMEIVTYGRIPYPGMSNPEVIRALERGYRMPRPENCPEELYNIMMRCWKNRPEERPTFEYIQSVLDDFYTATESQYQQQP

[10] = target: Jak2 (UniProt O60674); experiment: as above
[11] = target: MERTK (UniProt Q12866); experiment: as above
Sequence of MERTK (Q12866 whole entry, looked up): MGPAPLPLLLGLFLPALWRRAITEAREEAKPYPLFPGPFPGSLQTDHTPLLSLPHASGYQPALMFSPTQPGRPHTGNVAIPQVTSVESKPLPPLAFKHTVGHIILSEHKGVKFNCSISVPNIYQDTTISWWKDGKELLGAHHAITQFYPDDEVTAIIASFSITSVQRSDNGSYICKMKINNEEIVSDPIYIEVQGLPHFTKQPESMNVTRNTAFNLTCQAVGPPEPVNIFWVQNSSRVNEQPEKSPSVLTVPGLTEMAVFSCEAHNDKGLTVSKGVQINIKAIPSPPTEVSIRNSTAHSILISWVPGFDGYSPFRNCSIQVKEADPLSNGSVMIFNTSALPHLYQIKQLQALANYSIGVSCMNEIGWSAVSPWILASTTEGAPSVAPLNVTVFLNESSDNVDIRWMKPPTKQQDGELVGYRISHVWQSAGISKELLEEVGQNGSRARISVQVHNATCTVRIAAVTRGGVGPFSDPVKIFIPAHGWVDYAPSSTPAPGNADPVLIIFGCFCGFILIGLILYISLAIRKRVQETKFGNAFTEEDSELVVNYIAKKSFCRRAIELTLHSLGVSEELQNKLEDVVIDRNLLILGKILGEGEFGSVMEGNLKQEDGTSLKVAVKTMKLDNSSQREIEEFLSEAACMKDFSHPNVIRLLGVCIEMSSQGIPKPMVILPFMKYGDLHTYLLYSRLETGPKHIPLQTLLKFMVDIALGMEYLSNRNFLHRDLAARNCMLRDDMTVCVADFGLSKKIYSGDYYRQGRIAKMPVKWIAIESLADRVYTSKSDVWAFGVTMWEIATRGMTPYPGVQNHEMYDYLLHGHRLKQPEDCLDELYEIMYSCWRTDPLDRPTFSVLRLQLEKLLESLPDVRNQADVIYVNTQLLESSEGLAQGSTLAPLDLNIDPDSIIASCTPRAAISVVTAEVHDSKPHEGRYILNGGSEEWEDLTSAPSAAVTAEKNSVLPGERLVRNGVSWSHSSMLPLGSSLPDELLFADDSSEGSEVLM

[12] = test system: c-Abl (mouse); experiment: as above
[13] = test system: c-Src; experiment: as above
[14] = target: Grb2 SH2 (UniProt P62993); experiment: SH2 binding enrichment of the phosphorylated peptide, bacterial display (enrichment ratio); higher = better substrate or ligand; peptides without Tyr show the background
Sequence of Grb2 SH2 (P62993 whole entry, looked up): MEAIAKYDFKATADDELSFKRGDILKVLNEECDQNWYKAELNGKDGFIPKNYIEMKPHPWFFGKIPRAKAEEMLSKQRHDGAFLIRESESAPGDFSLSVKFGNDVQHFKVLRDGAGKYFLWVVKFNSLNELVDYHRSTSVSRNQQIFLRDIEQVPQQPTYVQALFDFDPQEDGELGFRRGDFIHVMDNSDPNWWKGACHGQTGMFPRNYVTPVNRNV

[15] = target: SHP2-C SH2; experiment: as above
[16] = target: c-Src SH2; experiment: as above
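Throughout, for SH2 binding enrichment of the phosphorylated peptide, bacterial display: peptide library displayed on the E. coli surface as eCPX fusions, selected cells deep-sequenced, score is each peptide's frequency after selection divided by its frequency in the input.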
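Throughout, for phosphorylation enrichment, bacterial display: 11-residue human phosphosite peptides and single-mutation variants displayed on the E. coli surface, counted by deep sequencing, each peptide's frequency after selection divided by its frequency in the unselected input library; frequency after pTyr selection over input frequency; kinase dosed for 20-30% of maximal phosphorylation in three min.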

Sequence of EPHB2 (P29323 whole entry, looked up): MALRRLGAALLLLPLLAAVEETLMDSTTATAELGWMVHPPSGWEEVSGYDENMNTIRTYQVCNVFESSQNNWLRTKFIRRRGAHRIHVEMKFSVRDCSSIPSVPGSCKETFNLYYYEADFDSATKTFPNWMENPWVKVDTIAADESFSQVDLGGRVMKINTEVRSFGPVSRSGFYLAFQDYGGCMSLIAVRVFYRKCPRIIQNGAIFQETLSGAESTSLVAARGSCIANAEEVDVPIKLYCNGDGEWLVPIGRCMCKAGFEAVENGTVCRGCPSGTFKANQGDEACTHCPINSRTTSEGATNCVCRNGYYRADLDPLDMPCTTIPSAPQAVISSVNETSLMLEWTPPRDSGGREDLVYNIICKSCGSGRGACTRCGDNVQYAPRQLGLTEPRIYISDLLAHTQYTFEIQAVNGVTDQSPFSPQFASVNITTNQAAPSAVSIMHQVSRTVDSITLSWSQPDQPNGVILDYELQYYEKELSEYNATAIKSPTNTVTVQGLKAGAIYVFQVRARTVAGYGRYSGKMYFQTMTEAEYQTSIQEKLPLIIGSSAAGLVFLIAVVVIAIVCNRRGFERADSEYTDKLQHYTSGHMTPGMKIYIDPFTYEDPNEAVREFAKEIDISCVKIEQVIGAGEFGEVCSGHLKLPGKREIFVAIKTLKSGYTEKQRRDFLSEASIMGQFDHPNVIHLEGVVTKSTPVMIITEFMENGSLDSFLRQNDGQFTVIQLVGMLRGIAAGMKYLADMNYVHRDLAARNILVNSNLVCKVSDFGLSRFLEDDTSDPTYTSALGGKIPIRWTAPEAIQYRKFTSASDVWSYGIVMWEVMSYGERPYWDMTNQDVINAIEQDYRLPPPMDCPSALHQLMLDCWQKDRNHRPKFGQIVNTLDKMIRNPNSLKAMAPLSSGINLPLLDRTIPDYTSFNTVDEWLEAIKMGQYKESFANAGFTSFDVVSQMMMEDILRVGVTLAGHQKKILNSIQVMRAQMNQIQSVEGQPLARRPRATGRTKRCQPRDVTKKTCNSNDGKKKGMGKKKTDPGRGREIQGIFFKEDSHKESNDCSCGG

Sequence	phosphorylation enrichment [1]	phosphorylation enrichment [2]	phosphorylation enrichment [3]	phosphorylation enrichment [4]	phosphorylation enrichment [5]	phosphorylation enrichment [6]	phosphorylation enrichment [7]	phosphorylation enrichment [8]	phosphorylation enrichment [9]	phosphorylation enrichment [10]	phosphorylation enrichment [11]	phosphorylation enrichment [12]	phosphorylation enrichment [13]	SH2 binding enrichment [14]	SH2 binding enrichment [15]	SH2 binding enrichment [16]
NFHRGYHLQVL [CD200R1L_Y138]	0.755	0.483	0.475	0.453	0.606	0.478	0.835	0.5	0.375	0.54	0.351	0.787	0.353	0.963	0.827	0.54
NFRTTYVNANE [KCNH2_Y475]	0.892	0.404	0.464	0.498	0.719	0.551	1.27	0.444	0.558	1.29	0.482	0.61	0.589	15.1	1.48	2.03
NGEDLYAGSTD [XRCC1_Y515_P514L]	1.17	0.517	0.541	0.489	0.613	0.52	1.05	0.66	0.886	1.02	0.446	0.743	0.807	0.834	0.555	0.469
NGRQCYSCKGN [PLAUR_Y217]	0.481	0.266	0.336	0.381	0.341	0.377	0.456	0.324	0.336	0.574	0.379	0.416	0.346	0.959	0.908	1.01
NIEPVYLNMLL [ATR_Y317]	1.58	6.94	5.01	8.65	5.81	10.5	1.48	6.88	5.48	1.36	3.46	4.49	6.42	0.836	1.04	0.402
NKEPRYQEDPP [TJP2_Y479]	0.852	0.525	0.607	0.625	0.823	0.59	0.999	0.693	0.546	0.832	0.508	0.48	0.461	1.43	0.822	0.78
NLNGKYFKPRA [ANGPTL3_Y417_N418Y_YF]	0.646	0.538	0.365	0.363	0.383	0.297	0.56	0.335	0.367	0.543	0.389	0.469	0.43	1.21	1.16	0.961
NNHGNYIVRLG [ETFDH_Y172]	0.619	0.548	0.563	0.456	0.595	0.438	0.723	0.5	0.481	0.702	0.416	0.667	0.547	0.889	0.991	0.781
NNIDFYKNTTN [FGFR2_Y657_K659N_YF]	0.746	0.484	0.389	0.442	0.609	0.448	0.792	0.472	0.553	0.574	0.352	0.57	0.369	0.804	0.611	0.434
NQILPYIKELV [PPP2R1B_Y341]	1.01	0.509	0.611	0.579	0.774	0.528	1.14	0.43	0.52	1.08	0.456	0.72	0.477	1.01	0.684	0.55
NQKGKYFNVER [ANAPC4_Y469_R465Q]	0.614	0.353	0.372	0.361	0.469	0.39	0.603	0.462	0.449	0.489	0.373	0.588	0.386	1.15	1.03	0.667
NRDNTYNPVSE [FGA_Y127_R129P]	0.751	0.544	0.465	0.457	0.627	0.481	0.857	0.562	0.658	0.699	0.486	0.545	0.522	0.694	0.443	0.425
NSGFFYKTAEE [CCT6B_Y250]	1.31	0.655	0.722	0.556	0.74	0.486	1.41	0.462	0.445	1.44	0.435	0.888	0.476	0.734	0.586	0.546
NTEGGYRCICA [CRELD1_Y328]	0.976	0.496	0.644	0.668	0.636	0.498	1.02	0.511	0.538	0.869	0.484	0.947	0.465	0.97	0.489	0.465
NTFENYWPFFQ [GATM_Y103_K102N_YF]	1.34	9.64	5.8	12.4	10.5	0.894	1.18	3.18	5.44	3.43	5.46	1.22	4.41	1.06	0.949	0.651
NTGDYYDLYGG [PTPN11_Y63]	4.64	13	14.4	14.7	13.8	1.59	1.13	5.18	5.35	4.07	4.18	1.02	5	1.02	0.939	0.687
NTYEKYWPFYQ [GATM_Y103]	1.41	6.55	8.15	2.76	1.89	1.92	2.3	5.72	4.39	1.93	5.5	1.17	5	1.14	0.762	1.24

Sequence	phosphorylation enrichment [1]	phosphorylation enrichment [2]	phosphorylation enrichment [3]	phosphorylation enrichment [4]	phosphorylation enrichment [5]	phosphorylation enrichment [6]	phosphorylation enrichment [7]	phosphorylation enrichment [8]	phosphorylation enrichment [9]	phosphorylation enrichment [10]	phosphorylation enrichment [11]	phosphorylation enrichment [12]	phosphorylation enrichment [13]	SH2 binding enrichment [14]	SH2 binding enrichment [15]	SH2 binding enrichment [16]
NVADHYGVYKP [ATP6V0D2_Y271]	0.571	0.401	0.391	0.461	0.451	0.424	0.645	5.55	3.71	0.517	0.356	0.587	4.89	0.917	0.647	0.597
NVFGNYNNQSS [HNRNPA1_Y318_D314V]	0.475	0.421	0.467	0.399	0.546	0.448	0.537	0.315	0.424	0.489	0.289	0.352	0.293	0.78	0.508	0.397
NYCPGYNNFYN [USH2A_Y467_R464C]	0.988	0.888	0.753	0.638	0.791	0.588	1.06	0.64	0.613	1.12	0.566	0.761	1.26	1.68	0.821	2.35
NYYDTYIKTCL [IQGAP2_Y1445]	1.93	5.9	5.75	7.55	5.88	1.1	1.25	3.03	2.38	1.5	3.49	0.928	2.34	0.841	0.595	0.401
PAIYTYDEYKK [COL8A2_Y648_T645I]	1.93	3.61	3.29	2.04	2.2	9.34	1.95	18.6	8.13	1.27	13.5	1.04	9.14	0.778	0.513	2.29
PAKPRYRARQR [KCNJ11_Y26_E23K]	1.08	0.774	1.06	0.671	0.642	0.767	0.877	0.813	0.819	0.955	0.935	0.818	0.763	0.654	0.399	0.418
PARLEYCENEK [IRS1_Y46_Y47C]	1.75	0.947	0.823	0.809	1.16	0.816	1.74	1.12	1.04	1.76	0.762	1.08	1.05	0.909	1.21	1.26
PCPANYFAFKI [FAM3D_Y65]	2.11	6.38	3.72	9.03	7.65	1.12	2.29	1.14	1.34	8.15	12.1	7.14	4.44	1.03	0.69	0.594
PEAALYGRFTI [FYN_Y440]	0.875	0.59	0.514	0.646	0.645	1.67	1.11	7.72	6.52	1.38	1.9	2.83	6.87	0.694	0.757	0.418
PEACDYGLGGG [GSTO1_Y239]	1.78	1.38	0.887	1.19	0.816	0.656	1.34	0.691	0.739	1.11	0.635	1.28	1.19	0.912	0.559	0.693
PEADKYCLTFA [FGG_Y300_R301C_YF]	1.33	0.685	0.7	0.664	1.21	0.72	1.96	0.76	1.5	1.71	0.758	1.32	0.683	0.757	0.606	0.498
PEFVVYKPQME [CCRL2_Y170]	1.7	1.12	0.843	0.673	1.08	0.898	1.82	0.814	0.883	1.82	0.972	1.42	0.783	1.02	0.686	0.635
PEVSGYCHFAD [TG_Y234_C237Y_YF]	1.29	0.745	0.782	0.709	0.773	0.517	1.39	0.532	0.639	1.15	0.384	0.937	0.572	0.883	0.631	1.32
PFADPYFDFEI [ZC3H18_Y371_YF]	1.48	0.673	0.369	9.45	6.94	0.902	1.16	0.885	0.597	1.7	0.638	0.811	4.46	0.857	1.03	0.666
PFIDSYEKDVA [PGM1_Y521_L516P_YF]	1.07	0.574	0.708	0.592	0.636	0.35	1.04	0.656	0.606	0.594	0.378	0.51	0.375	0.682	0.612	0.595
PGGKIYISPLK [RB1_Y805_N803K]	0.598	0.361	0.763	0.45	0.583	0.441	0.794	0.513	0.456	0.72	0.461	1.17	0.422	0.933	1.12	0.776
